{"source": "the Human Domainome abundance scans (Beltran et al. 2025)", "parents": {"B1": {"name": "Pre-mRNA-processing factor 40 homolog B, residues 274 to 332; numbered along this chain, Q6NWY9 (parent)", "chain": "SNREKAKQAFKELLRDKAVPSNASWEQAMKMVVTDPRYSALPKLSEKKQAFNAYKAQRE"}}, "note": "± gives the uncertainty stated by the source."}
{"variants_of": "B1", "assay": "abundance fitness (aPCA) (normalised: wild type 0, dead -1); higher = more abundant; growth selection in yeast, the domain comes from the species named", "settings": "Homo sapiens"}
{"variant": "K17S", "abundance fitness": "-0.365 ± 0.071"}
{"variant": "K17P", "abundance fitness": "-0.573 ± 0.13"}
{"variant": "K17M", "abundance fitness": "-0.038 ± 0.11"}
{"variant": "K17G", "abundance fitness": "-0.599 ± 0.075"}
{"variant": "K17Y", "abundance fitness": "-0.189 ± 0.18"}
{"variant": "K17E", "abundance fitness": "-0.437 ± 0.097"}
{"variant": "K17V", "abundance fitness": "-0.525 ± 0.068"}
{"variant": "K17F", "abundance fitness": "-0.146 ± 0.099"}
{"variant": "K17R", "abundance fitness": "-0.107 ± 0.061"}
{"variant": "E26L", "abundance fitness": "-0.362 ± 0.088"}
{"variant": "E26M", "abundance fitness": "-0.325 ± 0.19"}
{"variant": "E26R", "abundance fitness": "-0.719 ± 0.093"}
{"variant": "E26P", "abundance fitness": "-0.149 ± 0.099"}
{"variant": "E26K", "abundance fitness": "-0.169 ± 0.13"}
{"variant": "E26S", "abundance fitness": "-0.229 ± 0.089"}
{"variant": "E26T", "abundance fitness": "-0.006 ± 0.13"}
{"variant": "E26D", "abundance fitness": "-0.019 ± 0.12"}
{"variant": "E26G", "abundance fitness": "-0.274 ± 0.067"}
{"variant": "E26H", "abundance fitness": "-0.237 ± 0.22"}
{"variant": "E26W", "abundance fitness": "-0.598 ± 0.11"}
{"variant": "E26A", "abundance fitness": "-0.31 ± 0.091"}
{"variant": "E26F", "abundance fitness": "-0.729 ± 0.16"}
{"variant": "E26V", "abundance fitness": "-0.364 ± 0.083"}
{"variant": "E26Y", "abundance fitness": "-0.581 ± 0.14"}
{"variant": "E26I", "abundance fitness": "-0.547 ± 0.15"}
{"variant": "E26Q", "abundance fitness": "-0.412 ± 0.16"}
{"variant": "L13M", "abundance fitness": "0.122 ± 0.097"}
{"variant": "L13H", "abundance fitness": "-0.411 ± 0.13"}
{"variant": "L13F", "abundance fitness": "-0.668 ± 0.13"}
{"variant": "L13G", "abundance fitness": "-0.331 ± 0.056"}
{"variant": "L13N", "abundance fitness": "-0.482 ± 0.11"}
{"variant": "L13W", "abundance fitness": "-1.02 ± 0.12"}
{"variant": "L13I", "abundance fitness": "-1.12 ± 0.28"}
{"variant": "L13R", "abundance fitness": "-0.491 ± 0.066"}
{"variant": "L13V", "abundance fitness": "-0.511 ± 0.066"}
{"variant": "L13K", "abundance fitness": "-0.388 ± 0.11"}
{"variant": "L13D", "abundance fitness": "-0.262 ± 0.1"}
{"variant": "L13Y", "abundance fitness": "-0.559 ± 0.16"}
{"variant": "L13T", "abundance fitness": "-0.48 ± 0.093"}
{"variant": "L13Q", "abundance fitness": "-0.286 ± 0.14"}
{"variant": "L13C", "abundance fitness": "-0.244 ± 0.12"}
{"variant": "L13E", "abundance fitness": "-0.377 ± 0.074"}
{"variant": "L13A", "abundance fitness": "-0.327 ± 0.063"}
{"variant": "V19P", "abundance fitness": "-0.477 ± 0.11"}
{"variant": "V19H", "abundance fitness": "-0.938 ± 0.23"}
{"variant": "V19Q", "abundance fitness": "-0.383 ± 0.2"}
{"variant": "V19N", "abundance fitness": "-0.598 ± 0.19"}
{"variant": "V19T", "abundance fitness": "-0.231 ± 0.1"}
{"variant": "V19D", "abundance fitness": "-0.295 ± 0.13"}
{"variant": "V19M", "abundance fitness": "-0.32 ± 0.095"}
{"variant": "V19W", "abundance fitness": "-0.589 ± 0.083"}
{"variant": "V19E", "abundance fitness": "-0.375 ± 0.096"}
{"variant": "V19C", "abundance fitness": "-0.583 ± 0.11"}
{"variant": "V19Y", "abundance fitness": "-0.992 ± 0.15"}
{"variant": "V19R", "abundance fitness": "-0.633 ± 0.065"}
{"variant": "V19G", "abundance fitness": "-0.479 ± 0.056"}
{"variant": "V19F", "abundance fitness": "-0.932 ± 0.14"}
{"variant": "V19K", "abundance fitness": "-0.807 ± 0.13"}
{"variant": "V19I", "abundance fitness": "-0.462 ± 0.13"}
{"variant": "V19S", "abundance fitness": "-0.533 ± 0.078"}
{"variant": "V19A", "abundance fitness": "-0.612 ± 0.085"}
{"variant": "V19L", "abundance fitness": "-0.606 ± 0.084"}
{"variant": "A28N", "abundance fitness": "-0.445 ± 0.077"}
{"variant": "A28T", "abundance fitness": "-0.299 ± 0.054"}
{"variant": "A28G", "abundance fitness": "-0.48 ± 0.055"}
{"variant": "A28M", "abundance fitness": "-0.576 ± 0.062"}
{"variant": "A28S", "abundance fitness": "-0.413 ± 0.05"}
{"variant": "A28L", "abundance fitness": "-0.684 ± 0.048"}
{"variant": "A28I", "abundance fitness": "-0.595 ± 0.071"}
{"variant": "A28F", "abundance fitness": "-0.563 ± 0.068"}
{"variant": "A28W", "abundance fitness": "-0.71 ± 0.068"}
{"variant": "A28Q", "abundance fitness": "-0.313 ± 0.065"}
{"variant": "A28R", "abundance fitness": "-0.607 ± 0.05"}
{"variant": "A28H", "abundance fitness": "-0.583 ± 0.067"}
{"variant": "A28D", "abundance fitness": "-0.473 ± 0.072"}
{"variant": "A28E", "abundance fitness": "-0.431 ± 0.074"}
{"variant": "A28V", "abundance fitness": "-0.277 ± 0.056"}
{"variant": "A28K", "abundance fitness": "-0.524 ± 0.063"}
{"variant": "R15Y", "abundance fitness": "-0.091 ± 0.18"}
{"variant": "R15S", "abundance fitness": "-0.214 ± 0.1"}
{"variant": "R15N", "abundance fitness": "0.015 ± 0.15"}
{"variant": "R15M", "abundance fitness": "0.219 ± 0.2"}
{"variant": "R15F", "abundance fitness": "0.019 ± 0.13"}
{"variant": "R15L", "abundance fitness": "-0.097 ± 0.077"}
{"variant": "R15Q", "abundance fitness": "-0.062 ± 0.14"}
{"variant": "R15P", "abundance fitness": "-0.593 ± 0.12"}
{"variant": "R15G", "abundance fitness": "-0.211 ± 0.084"}
{"variant": "R15D", "abundance fitness": "-0.238 ± 0.16"}
{"variant": "R15W", "abundance fitness": "-0.106 ± 0.1"}
{"variant": "R15V", "abundance fitness": "-0.001 ± 0.087"}
{"variant": "R15H", "abundance fitness": "0.064 ± 0.32"}
{"variant": "R15E", "abundance fitness": "0.046 ± 0.14"}
{"variant": "R15I", "abundance fitness": "-0.052 ± 0.18"}
{"variant": "R15A", "abundance fitness": "0.001 ± 0.089"}
{"variant": "R15C", "abundance fitness": "-0.171 ± 0.11"}
{"variant": "R15K", "abundance fitness": "-0.129 ± 0.16"}
{"variant": "L14A", "abundance fitness": "-0.452 ± 0.069"}
{"variant": "L14E", "abundance fitness": "-0.339 ± 0.096"}
{"variant": "L14F", "abundance fitness": "-0.683 ± 0.12"}
{"variant": "L14P", "abundance fitness": "-0.261 ± 0.1"}
{"variant": "L14K", "abundance fitness": "-0.408 ± 0.11"}
{"variant": "L14G", "abundance fitness": "-0.403 ± 0.054"}
{"variant": "L14I", "abundance fitness": "-1.05 ± 0.27"}
{"variant": "L14R", "abundance fitness": "-0.71 ± 0.067"}
{"variant": "L14H", "abundance fitness": "-0.573 ± 0.2"}
{"variant": "L14Y", "abundance fitness": "-0.925 ± 0.18"}
{"variant": "L14D", "abundance fitness": "-0.504 ± 0.11"}
{"variant": "L14W", "abundance fitness": "-0.963 ± 0.11"}
{"variant": "L14C", "abundance fitness": "-0.483 ± 0.11"}
{"variant": "L14N", "abundance fitness": "-0.376 ± 0.11"}
{"variant": "L14T", "abundance fitness": "-0.547 ± 0.098"}
{"variant": "L14M", "abundance fitness": "-0.639 ± 0.1"}
{"variant": "L14V", "abundance fitness": "-0.385 ± 0.068"}
{"variant": "L14Q", "abundance fitness": "-0.339 ± 0.12"}
{"variant": "L14S", "abundance fitness": "-0.384 ± 0.079"}
{"variant": "P20G", "abundance fitness": "-0.391 ± 0.05"}
{"variant": "P20S", "abundance fitness": "-0.506 ± 0.066"}
{"variant": "P20D", "abundance fitness": "-0.395 ± 0.14"}
{"variant": "P20Y", "abundance fitness": "-0.641 ± 0.14"}
{"variant": "P20C", "abundance fitness": "-0.59 ± 0.095"}
{"variant": "P20F", "abundance fitness": "-1.59 ± 0.38"}
{"variant": "P20R", "abundance fitness": "-0.592 ± 0.053"}
{"variant": "P20L", "abundance fitness": "-0.641 ± 0.072"}
{"variant": "P20E", "abundance fitness": "-0.364 ± 0.064"}
{"variant": "P20M", "abundance fitness": "-0.549 ± 0.083"}
{"variant": "P20V", "abundance fitness": "-0.578 ± 0.062"}
{"variant": "P20N", "abundance fitness": "-0.587 ± 0.13"}
{"variant": "P20T", "abundance fitness": "-0.421 ± 0.083"}
{"variant": "P20H", "abundance fitness": "-0.789 ± 0.16"}
{"variant": "P20I", "abundance fitness": "-0.753 ± 0.14"}
{"variant": "P20K", "abundance fitness": "-0.654 ± 0.12"}
{"variant": "P20A", "abundance fitness": "-0.451 ± 0.066"}
{"variant": "K11L", "abundance fitness": "0.159 ± 0.1"}
{"variant": "K11Q", "abundance fitness": "0.343 ± 0.13"}
{"variant": "K11R", "abundance fitness": "-0.03 ± 0.067"}
{"variant": "K11I", "abundance fitness": "0.233 ± 0.12"}
{"variant": "K11H", "abundance fitness": "-0.17 ± 0.32"}
{"variant": "K11A", "abundance fitness": "0.145 ± 0.084"}
{"variant": "K11P", "abundance fitness": "-0.322 ± 0.13"}
{"variant": "K11C", "abundance fitness": "0.061 ± 0.11"}
{"variant": "K11S", "abundance fitness": "-0.001 ± 0.1"}
{"variant": "K11N", "abundance fitness": "-0.137 ± 0.16"}
{"variant": "K11W", "abundance fitness": "0.082 ± 0.1"}
{"variant": "K11E", "abundance fitness": "0.004 ± 0.15"}
{"variant": "K11F", "abundance fitness": "0.061 ± 0.12"}
{"variant": "K11G", "abundance fitness": "-0.16 ± 0.07"}
{"variant": "K11Y", "abundance fitness": "-0.155 ± 0.24"}
{"variant": "K11D", "abundance fitness": "-0.386 ± 0.17"}
{"variant": "K11T", "abundance fitness": "0.217 ± 0.11"}
{"variant": "E12K", "abundance fitness": "-0.469 ± 0.11"}
{"variant": "E12V", "abundance fitness": "-0.705 ± 0.077"}
{"variant": "E12G", "abundance fitness": "-0.491 ± 0.061"}
{"variant": "E12W", "abundance fitness": "-1.15 ± 0.17"}
{"variant": "E12P", "abundance fitness": "-0.988 ± 0.14"}
{"variant": "E12C", "abundance fitness": "-0.602 ± 0.13"}
{"variant": "E12H", "abundance fitness": "-0.297 ± 0.17"}
{"variant": "E12D", "abundance fitness": "-0.152 ± 0.12"}
{"variant": "E12N", "abundance fitness": "-0.128 ± 0.14"}
{"variant": "E12M", "abundance fitness": "-0.705 ± 0.14"}
{"variant": "E12S", "abundance fitness": "-0.283 ± 0.083"}
{"variant": "E12A", "abundance fitness": "-0.231 ± 0.075"}
{"variant": "E12Y", "abundance fitness": "-0.817 ± 0.27"}
{"variant": "E12Q", "abundance fitness": "-0.249 ± 0.1"}
{"variant": "E12T", "abundance fitness": "-0.301 ± 0.13"}
{"variant": "E12L", "abundance fitness": "-0.632 ± 0.091"}
{"variant": "E12F", "abundance fitness": "-0.718 ± 0.18"}
{"variant": "E12R", "abundance fitness": "-0.62 ± 0.073"}
